Measured values taken from paper PMC8618960, “Functionalized Protein Nanotubes Based on the Bacteriophage vB_KleM-RaK2 Tail Sheath Protein” (Nanomaterials, 2021).

Substrate: CC(=O)Nc1ccn([C@H]2C[C@H](O)[C@@H](CO)O2)c(=O)n1
Experiment: purified protein
Assay type: biochemical, Escherichia coli
Settings: 10 mM Tris-HCl pH 8.0, 22 °C, free enzyme

B1: YqfB (free wild-type YqfB, amidohydrolase YqfB) (Escherichia coli K-12) (protein)
chain: MQPNDITFFQRFQDDILAGRKTITIRDESESHFKTGDVLRVGRFEDDGYFCTIEVTATSTVTLDTLTEKHAEQENMTLTELKKVIADIYPGQTQFYVIEFKCL
notes: free wild-type YqfB
For B1, the Km was “(4.9 ± 0.04) × 10^−4 M”, the kcat was 113 ± 1 s⁻¹ and the kcat/Km was 230000 M⁻¹ s⁻¹.
